Measurements: paper PMC3804487, “DNA Aptamers Selectively Target Leishmania infantum H2A Protein”

T1: rLiH2A (histone H2A) (Leishmania infantum, UniProt Q9BJC8 1-132)
T1 sequence: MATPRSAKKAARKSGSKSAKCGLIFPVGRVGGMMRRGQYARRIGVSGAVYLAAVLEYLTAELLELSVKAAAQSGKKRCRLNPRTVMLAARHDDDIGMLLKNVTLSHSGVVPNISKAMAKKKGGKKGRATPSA

B1: AptLiH2A#2 (structured_DNA)
DNA: GCGGATGAAGACTGGTGTGGAGTCTACCCTGTTTTCTAGTCTGCCATCCCTATCCCATGCCCTAAATACGAGCAAC
B2: AptLiH2A#1 (structured_DNA)
DNA: GCGGATGAAGACTGGTGTTGTGCAATGATTTTTCCGGTTGACCAGGTAGGAATTGTAGGCCCTAAATACGAGCAAC

Target: T1, rLiH2A (histone H2A)
Assay: ELONA
Conditions: protein: recombinant; tags: His (Ni-NTA purified)

Binder	Kd [nM]
B1	1.16 ± 0.28
B2	0.96 ± 0.17
